Measurements taken from article PMC11340043, “Antagonist anti-LIF antibody derived from naive human scFv phage library inhibited tumor growth in mice” (BMC Immunology, 2024).

T1: human gp130-his (human, UniProt P40189 23-619)
T1 construct: gp130 (interleukin-6 receptor subunit beta), human; source: bought: Sino Biological
T1 sequence (looked up): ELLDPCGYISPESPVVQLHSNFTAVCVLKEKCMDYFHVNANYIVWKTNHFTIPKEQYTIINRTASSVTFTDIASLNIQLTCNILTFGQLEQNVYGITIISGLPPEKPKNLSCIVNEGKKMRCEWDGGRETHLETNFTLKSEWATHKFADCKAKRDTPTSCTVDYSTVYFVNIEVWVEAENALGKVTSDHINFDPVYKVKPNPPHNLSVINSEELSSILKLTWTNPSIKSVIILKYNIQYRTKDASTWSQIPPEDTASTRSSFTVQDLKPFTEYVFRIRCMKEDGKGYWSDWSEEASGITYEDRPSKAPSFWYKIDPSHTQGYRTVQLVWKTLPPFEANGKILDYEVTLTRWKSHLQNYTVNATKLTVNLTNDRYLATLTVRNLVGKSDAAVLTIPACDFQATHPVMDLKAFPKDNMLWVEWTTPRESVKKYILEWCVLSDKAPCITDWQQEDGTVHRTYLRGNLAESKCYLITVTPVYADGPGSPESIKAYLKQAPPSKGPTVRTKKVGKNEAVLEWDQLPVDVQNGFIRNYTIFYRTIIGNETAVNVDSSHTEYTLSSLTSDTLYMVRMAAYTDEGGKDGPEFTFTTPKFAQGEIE


How the values were obtained:
human gp130-his [1] = molecular target: T1, human gp130-his; assay: SPR; Biacore 8K, CM5 chip with anti-mouse IgG, 1G11 captured; 200 nM hLIF flowed, followed by 500 nM LIFR-his or gp130-his; 25 C, pH 7.4, 10 mM HEPES, 150 mM NaCl, 3 mM EDTA, 0.05% Tween-20; settings: both partners purified
human gp130-his [2] = molecular target: T1, human gp130-his; assay: ELISA; receptor competitive ELISA: wells coated with LIFR-his or gp130-his (100 ng/well); hLIF-hFc (50 ng) pre-mixed with recombinant antibody at 4 C for 1 h, then 37 C for 1 h on the plate; detected with HRP goat anti-human IgG; settings: both partners purified

Binder | binding result (human gp130-his [1]) | binding result (human gp130-his [2])
human LIF (ligand, also called hLIF; source: bought: Genscript) not shown | binds | 
human LIF with human IgG1-Fc tag (Fc fusion, also called hLIF-hFc; LIF-hFc) not shown |  | binds
